For data set [1], the target named is T1, RR (KdpE-like response regulator) (Deinococcus radiodurans R1 ATCC BAA-816) (UniProt Q9RZP1).
T1 sequence: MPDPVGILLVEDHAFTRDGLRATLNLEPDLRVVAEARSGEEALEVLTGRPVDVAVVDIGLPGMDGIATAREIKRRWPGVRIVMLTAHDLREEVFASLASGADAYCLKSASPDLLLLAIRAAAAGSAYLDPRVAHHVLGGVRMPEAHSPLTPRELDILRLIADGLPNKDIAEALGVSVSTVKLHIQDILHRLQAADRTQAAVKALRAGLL
Nature of the data set: EMSA. As to conditions: 20 mM HEPES pH 7.6, 10 mM (NH4)2SO4, 30 mM KCl, 1 mM EDTA, 1 mM DTT, 0.2% Tween20, 37°C 1 h; 10% native PAGE in 0.5X TBE.

In data set [2] the target is T2, RR (KdpE-like response regulator) (Deinococcus radiodurans R1 ATCC BAA-816, UniProt Q9RZP1 1-209).
T2 sequence: T1 sequence with R131Q
Nature of the data set: EMSA. The following applies: apparent; Hill coefficient 1.36 ± 0.17; unphosphorylated; 20 mM HEPES pH 7.6, 10 mM (NH4)2SO4, 30 mM KCl, 1 mM EDTA, 1 mM DTT, 0.2% Tween20, 37°C 1 h; 10% native PAGE in 0.5X TBE.

Data set [3] has as its target T2, RR (KdpE-like response regulator). Nature of the data set: EMSA; 12% native PAGE; 20 mM HEPES pH 7.6, 10 mM (NH4)2SO4, 30 mM KCl, 1 mM EDTA, 1 mM DTT, 0.2% Tween20, 37°C 1 h; 10% native PAGE in 0.5X TBE. The following applies: protein: recombinant; tags: C-terminal His tag (pET29b NdeI/XhoI, Ni-NTA; position implied by vector); chain copies: 2; label: DIG-ddUTP; blunt.

Numbering of substitutions follows the chain as printed.

Regarding “GGCCTTGATGAGGTTCTTGTCCTTGGCGTACTTGTTGAGCACGCGGGTGTACGCCGTCTTGAAGCCGGTCAGCGGGGTGCCGCCGTCGCGGGTGCGGATCATGTTGGCGTAGGTCAGGATGTTGTCGCTGGCGTAGGTGTTGGCGTGGATAAA (double strand) [nsDNA (DR_0906 fragment)]”, in data set [1], the binding result is “no binding”.
As to PkdpB-200, the Kd in data set [2] amounted to 3.62 µM.

B1: PkdpB-38 (dsDNA)
DNA 1: AACGGCGCTATGAGTCTTTCTTCTTTCCGGTGGCGGCC
DNA 2: GGCCGCCACCGGAAAGAAGAAAGACTCATAGCGCCGTT
On to B1, for which, in data set [3], the binding result is listed as “binds”.

Source of the values: PMC5716572, “Regulation of potassium dependent ATPase (kdp) operon of Deinococcus radiodurans”.
